Results as given in patent US20200297834A1.

Key:
[1] = biological target: VEEV E2 (of VEEV TC-83, in infected Vero cells) (Venezuelan equine encephalitis virus, strain TC-83) (UniProt P05674); test: confocal microscopy, line scan of z-stack, VEEV TC-83 infected Vero cells, 16 h
[2] = biological target: VEEV capsid (of VEEV TC-83, in infected Vero cells) (Venezuelan equine encephalitis virus, strain TC-83) (UniProt P05674); test: as above

Substance	Pearson's correlation (co-localization) [1]	Pearson's correlation (co-localization) [2]
PKCδ (endogenous, Vero cells) (enzyme)	0.581	–
PKCδ (endogenous, Vero cells)	–	0.771
